From the nanobody polyreactivity screen of Harvey et al. (2022)

Assay: yeast display, Sf9 membrane polyspecificity reagent, FACS + sequencing; frameworks hold sequencing errors
Method in brief: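 Synthetic nanobody libraries on Saccharomyces cerevisiae BJ5465 were galactose-induced for 36–48 hours, stained 1 hour at 4 °C with 10% biotinylated, detergent-solubilized Sf9 membrane reagent and enriched on streptavidin microbeads. FACS then separated cells into low and high (top ~1%) gates by anti-HA (expression) and streptavidin (reagent binding) fluorescence. Genes were colony-PCR amplified, MiSeq 2 × 250 sequenced and CDR-length filtered. A clone's polyreactivity label is that of its gate of origin.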

Sequence | polyreactivity (PSR sort gate)
QVQLVESGGRLVQAGGSLRFTCAASGSIFYSYAMGWYRQAPGKERELLAAINYSGSSTYYADSVKGRFTISRDNAKNTVYLQMNSLKPEDTAVYYCAAVIHSQYVDYYYWGQGTQVTVSS | high polyreactivity
QVQLVESGGRLVQAGGSLRIICAASGIIFFHYAMGWYRQAPGKERELVAAITCSGGSTYYADSVKGRFTISRDKAKNTVYLHMNSLKPEDTAVYYGNAVLHRRLYDYWGQGTQVTVSS | high polyreactivity
QVQLVESGGRLVQAGGSLRLICAASGFIFWYYAMGWYRQAPGKERELVADISSGGSTNYADSVKGRFTISRDNAKNTVYLQMNSLKPEDTAVYYCAADTFRRDDYWGQGTQVTVSS | low polyreactivity
QVQLVESGGRLVQAGGSLRLICAASGLIFRAYAMGWYIQAPGKERELVAAISRNGGSTYYADSVKGRFTISRDNAKNTVYLQMNILKPEDTAGYYCNKVSRSSVYQDYYYWGQGTQVTVSS | high polyreactivity
QVQLVESGGRLVQAGGSLRLRCAASGSIFGGYTMGRSRQAPGKERELVAAISRRGGNTYYADSVKGRFTISRDNAKNTVYLQMNSLKPEDTAVYYGAVRWPSARIPVKLDYWGQGTQVSVSS | high polyreactivity
QVQLVESGGRLVQAGGSLRLSCAACGGIIWYNTMGWYRQAPGKERELVAAISDSGGRTSYADSVKGRFTISRDNAKNTVYLQMNSLKPEDTAVYYCNVDYVVSRGFIYRVDYWGQGTQVTVSS | low polyreactivity
QVQLVESGGRLVQAGGSLRLSCAASAITFGHNAMGWYRQAPGKGRELVATISTRGGSTYADSVKGRFTISRDNAKNTVYLQMNSLKPEDTAVYYCAAPAGGYVPYFYEFDYWGQGTQVTVSS | low polyreactivity
QVQLVESGGRLVQAGGSLRLSCAASGFIFAYYSMGWYRKAPGKERELVAAISQSGTSTYYADSLKGRFTISRAKAKNTVYLQMNSLKPVDTAVYYCNAELRDLEYDYWGQGTQVTVSS | low polyreactivity
QVQLVESGGRLVQAGGSLRLSCAASGFIFEDYAMGWYRQAPGKERELVAAITWRGGSTYYADSVKGRFTISRDHAKTTVYLQMNSLKPEDTAVYYCAAEDYWGWRDYWGQGTQVTVSS | high polyreactivity
QVQLVESGGRLVQAGGSLRLSCAASGFIFKLYGMGWYRQAPGKESEMVAAINTSGGRTYYADSVKGRFTISLDNAKNTVYLQMNSLKPEDTAVYYCNTYYSFYGGGYDHWVQGTQVTVSS | high polyreactivity
QVQLVESGGRLVQAGGSLRLSCAASGFTFGHYAMGWSRPARGKEWELVAAIRWSGGSTYYADSVKGRFTISRDNAKNTVYLQMNSLKPEDTAVYYCAARRFDGFEYDYWGDGTQVTVSS | low polyreactivity
QVQLVESGGRLVQAGGSLRLSCAASGFTFPNYAMGWYRQAPGKERELVAAISWSGTSTYYADSVKGRFTISRDNAKNTVYLQMNSLKPEDTAVYDCAAKYQRGGYYESYWLRTGYYWGQGTQVTVSS | high polyreactivity
QVQLVESGGRLVQAGGSLRLSCAASGFTFSEYAMRWYRPAPGKVRELVAAINDGGGSTYYADSVKGRFTISRDNAKNTVYLQMNSLKPEDTAVYYCAVEQRLRYGYDYWGQGTQVTVSS | high polyreactivity
QVQLVESGGRLVQAGGSLRLSCAASGFTFVEYAMGWYRQAPGKERELVAANSRSGSTYYADSVKGRFTISRDNSKNTVYLQMNSLKPEDTAVYYCATLVYRKQYSRYDYWGQGTQVTVSS | high polyreactivity
QVQLVESGGRLVQAGGSLRLSCAASGGIFYYNAMGRYRQAPGKERELVAAIRYRGGSTYYADSVKGRFTISRDNAKNTVYLQMNSLKPEDTAVYYCAADYYRSRYYYWGQGTQVTVSS | low polyreactivity
QVQLVESGGRLVQAGGSLRLSCAASGGTLTSNPMGWYRPAPGKERELVAAINKSGGSTYYADSVKGRFTISRDNAKNTVYLQMNSLKPEDTAVYYCAARFYYWVSGGLVKYNYWGQGTQVTVSS | high polyreactivity

Sequence | polyreactivity (PSR sort gate)
QVQLVESGGRLVQAGGSLRLSCAASGIIFKGYDMGWYRQEHGKVRELVAGITWIVGSTYADSVKGRFTISRDNAKNTVYLQMNSLKPEDTAVYYCNADPELTGYRFLCAEGVEYWGEGTQVTVSS | low polyreactivity
QVQLVESGGRLVQAGGSLRLSCAASGIIFTNYAMGWYRQAPGKERELVAAISSSSGTTYYADSVKGRFTISRDNAKNTVYLQMNSLKPEDTAVYYCAARPVYSTGYPRGRYGYWGQGTQVTVSS | high polyreactivity
QVQLVESGGRLVQAGGSLRLSCAASGIIFWVNAMGWYRQSTGKESELVAAISGRGGRTYYVDSVKGRFTISRDNAKNTVYLQMNSLKPEDTAVYYCNTVPYPAYLARMDYWGQGTQGTVSS | high polyreactivity
QVQLVESGGRLVQAGGSLRLSCAASGITFGVYAMGWYRQAPGKERELVAAISRRGAATYYADSVKGRFTISRDNAKNTVYLQMNSLKPEDTAVYYCAAYLARRQYDYWGQGTHVTVSS | high polyreactivity
QVQLVESGGRLVQAGGSLRLSCAASGLTFDPNDMGWYRQAPGKERELVAAISWSSGSTYYADSVKGRFTISRDNAKNTVYLQMNSLKPEDTAVYYCAAYFTLLFGTELYDYDYWGQGTQVTVSS | high polyreactivity
QVQLVESGGRLVQAGGSLRLSCAASGLTFGSYAMGWYRQAPGKESELVAGISARAGRTYYADSVKGRFTISRDNAKNTVYLQMNSLKPEDTAVYYCAARVYSRYHTKGFSNYQYDYWGQGTQVTVSS | high polyreactivity
QVQLVESGGRLVQAGGSLRLSCAASGLTITRNAMGWYRQAPGKERELVAAISWSGGSTYYADSVKGRFTISRDNAKNTVYLQMNSLKPEDTAVYDCAAEPYKQYTGYYYSGFEYWGQGTQVTVSS | high polyreactivity
QVQLVESGGRLVQAGGSLRLSCAASGLTLFRYAKGWYRTAPGKERELVAAIDYGGGTYYADSVKGRFTISRDNAKNTVYLQMNSLKPEDTAVYYCAVEPEYKYYEGDYWGQGTQVTVSS | low polyreactivity
QVQLVESGGRLVQAGGSLRLSCAASGNILRFNALGWYRQAPGKEWQLVAAISRSGGTTYFADSVKGRFTISRDTAKNTVYLQMNSLKPEDTAVYYCAARSRYGESPGYYWGQGTQVTVSS | high polyreactivity
QVQLVESGGRLVQAGGSLRLSCAASGRIFGPYVMGWYRQAPGKERELFAAISTSGTYTYYADSVNGRFTISPDNAKNTVYLQMNSLKPEDTAVYYCAKRSGARHRLMDYWGQGTQVTVSS | low polyreactivity
QVQLVESGGRLVQAGGSLRLSCAASGRIFLSYAMGWYRQAPGKERELVAAISRSGGRTYYADSVKGRFTISRDNAKNTVYLQMNSLKPEDTAVYYCNVVVYVLRHYLRYDYWGQGTQVTVSS | high polyreactivity
QVQLVESGGRLVQAGGSLRLSCAASGRIFNHYAMGWYRQAPGKERELVAAIDRSGGSTYYADSVKGRFTISRDNAKNTVYFQMNSLKPEDTAVYYCNARRIIAKYGYWGQGTQVTVSS | high polyreactivity
QVQLVESGGRLVQAGGSLRLSCAASGRIFRRYAMGWYRQAPGKERELVATINSGGTTNYADSVKGRFTISRDNAKNTVYLQMNSLKPEDTAVYYCNARSARYSGFDYWGQGTQVTVSS | high polyreactivity
QVQLVESGGRLVQAGGSLRLSCAASGRISPYAMGWYRQAPGKERELVAAISSRGGRTYYADSVKGRWTISRDNAKNTVYLEMNSQKPEDTAVYYCAVYPRSTLRTFQRDYWGQGTQVTVSS | high polyreactivity
QVQLVESGGRLVQAGGSLRLSCAASGSIFAVNTMGWYRQAPGKERELVAAISQRGSSTYYADSVKGRFTISRDNAKNTVYLQMNSLKPEDTAVYYCAKRFIYGRYNYWGQGTQVTVSS | high polyreactivity
